Biological target: TBK1 (UniProt Q9UHD2)
Experiment: co-immunoprecipitation, immunoblot
Conditions: reference: wild-type IRF3 + TBK1 + BLK; sites Y107

## IRF3 (from UniProt Q14653) IRF3(Y107F) + TBK1 + BLK
  binding against the reference: weaker
